In the series the target is T1, His-Fur (Vibrio cholerae C7258 (El Tor; Peru, 1991)) (UniProt P0C6C8).
T1 sequence: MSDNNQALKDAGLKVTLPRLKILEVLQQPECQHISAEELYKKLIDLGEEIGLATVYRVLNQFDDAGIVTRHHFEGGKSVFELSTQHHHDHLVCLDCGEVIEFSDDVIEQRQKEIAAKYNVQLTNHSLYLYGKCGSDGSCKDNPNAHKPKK
The series can be described thus: EMSA. The following applies: 10 mM Tris-HCl pH 7.5, 50 mM KCl, 1 mM MgCl2, 100 uM MnCl (so in the source), 0.5 mM DTT, 0.05 mg/ml BSA, 10 mg/ml salmon sperm DNA; room temperature, 20 min (EMSA …).

Take “CACTTCTTCGCCTTCTTTGATTGCGCCAGTACGGCGAATATCCAAACGAACAGAAGCGTAGAATTTCAGTGCGTTACCGCCAGTGGTGGTTTCTGGGTTACCAAACATCACACCAATCTT (double strand) [recA fragment (negative control)]”: the binding result is “no binding”.

(Values after article PMC7641913.)
